In doi:10.1101/2021.09.27.462041 one finds Kd and koff data, which are given here for 1 molecule.

The term Kd denotes the constant that tells how readily two partners part at equilibrium. Read a low Kd as a tighter complex. Usually koff stands for a measure of how fast the partners let go of each other. Read a low koff as slow dissociation.

What all share (assay): SPR
Assay [1] concerns the target H3K27me3 11-mer histone H3 tail peptide.
For assay [2], the target named is H3K9me3 11-mer histone H3 tail peptide.
In assay [3] the target is H3K4me3 11-mer histone H3 tail peptide.
The target of assay [4] is H3K36me3 11-mer histone H3 tail peptide.

B1: DIDO3 PHD domain (domain or fragment)
chain: PNALYCICRQPHNNRFMICCDRCEEWFHGDCVGISEARGRLLERNGEDYICPNCTILQVQ
As to B1, the Kd in assay [1] was 0.0265 µM; in assay [2], 0.0222 µM; in assay [3] it was 0.0255 µM; in assay [4] it was 0.0321 µM. The koff in assay [3] came out at 0.00238 s⁻¹; in assay [4] it was 0.0024 s⁻¹.
